From patent publication US7968297B2, “Method for identification, isolation and production of antigens to a specific pathogen” (Intercell AG, priority 2001, dated 2011)

B1: ORF2695 (protein, listed as Staphylococcus epidermidis)
chain: MRYLKKVTIYISLLILTIFIGGCGFINKEDSKETEIKQNFNKMLNVYPTKNLEDFYDKEGFRDEEFDKGDKGTWIIRSEMTKQPKGKIMTSRGMVLYINRNTRTAKGYFLIDEIKDDNSGRPIENEKKYPVKMNHNKIFPTKPISDDKLKKEIENFKFFVQYGDFKNLKDYKDGEISYNPNVPSYSAQYQLNNNDNNVKQLRKRYDIPTNQAPKLLLKGDGDLKGSSVGSKNLEFTFVENKEENIFFTDAVQFTPSEDDES

What follows are molecules tested against T1, DRA1*0101/DRB1*0401 (Homo sapiens, UniProt P01903+P01911, A100K/A169T/F76Y/I96L/K127E/L162R/M171V/N62H/P40V/Q125Y/R42H/S133A/S149N/S66Y/V115G/V209L/W38E) (assay: Competition assay with soluble HLA class II molecules). Conditions: binding to soluble DRA1*0101/DRB1*0401 molecules.
T1 construct: using recombinant soluble versions of HLA class II molecules; made in house; host or cells: SC-2 cells
Design: key: +, + +: binding; +, + +: binding; −: no competition up to 200 μM test peptide
Method: Binding of peptides to HLA molecules on the surface of antigen-presenting cells is a prerequisite for activation of T cells. Binding was assessed in vitro by two independent biochemical assays using recombinant soluble versions of HLA class II molecules. One assay measures the concentration dependent competitive replacement of a labeled reference peptide by the test peptides. The second assay is based on the formation of SDS-stable complexes upon binding of high- and intermediate affinity ligands.
Soluble HLA molecules (DRA1*0101/DRB1*0101 and DRA1*0101/DRB1*0401) were expressed in SC-2 cells and purified as described in Aichinger et al., 1997. For the competition assay (Hammer et al. 1995) HLA molecules were applied between 50 and 200 ng/well. For DRB1*0101 biotinilated indicator peptide HA (PKYVKQNTLKLAT—SEQ ID NO:602, Valli et al. 1993) was used at 0.008 μM. […] Molecules, indicator and test peptides were incubated overnight at 37° C., pH 7. HLA:peptide complexes obtained after incubation with serial dilutions of test and reference peptides (the known high-affinity binders HA and UD4 were used as positive control) were captured in ELISA plates coated with antibody L243, which is known to recognize a conformational epitope formed only by correctly associated heterodimers. Incorporated biotin was measured by standard colorimetric detection using a streptavidin-alkaline phosphatase conjugate (Dako) with NBT/BCIP tablets (Sigma) as substrate and automated OD reading on a Victor reader (Wallac).
In the case of “PKLRSFYSIRKSTLGVASVIVST (listed as Staphylococcus aureus) [p6-28]”, the binding is reported as “+”. In the case of “FPYIPDKAVYNAIVKVVVANIGYEGQ (FPYIPDKAVYNAIVKVVVANIGYEGQY; listed as Staphylococcus aureus) [p620-646]”, the binding is reported as “+”. In the case of MHVPSFQNNTTATHQN [p254-270], the binding is reported as “+”. MTLPLMALLALSSIVAFVLPRKRKN [p623-647] was tested, and the binding was “− (−: no competition up to 200 μM test peptide)”. In the case of YDYKYFYSYKVVKGVKKYFSFSQS [p275-299], the binding is reported as “+”. AGGIFYNQTNQQLLVLCDGMGGHK [p23-47] was tested, and the binding was “− (−: no competition up to 200 μM test peptide)”. In the case of ALVFEKSVVIANVGDSRA [p107-124], the binding is reported as “− (−: no competition up to 200 μM test peptide)”. For IKLVSYDTVKDYAYIRFSVSNGTKA [p209-233], the binding was “+”. For KDYAYIRFSVSNGTKAVKIVSSTHFNN [p218-244], the binding was “+”. With IKINHFCVVPQINSFKVIPPYGHNS [p226-251] the binding was “− (−: no competition up to 200 μM test peptide)”. For “PSLNIKNVNYQYAVPSYSPT (listed as Staphylococcus aureus) [p306-326]”, the binding was “+”. “GESLNIIASRYGVSVDQLMAANNLRG (listed as Staphylococcus aureus) [p96-121]” was tested, and the binding was “− (−: no competition up to 200 μM test peptide)”. With TIFRYVEGKSLYE [p416-428] the binding was “− (−: no competition up to 200 μM test peptide)”. In the case of “NNLRGYLIMPNQTLQIPNG (NNLRGYLIMPNQTLQIPNGG; listed as Staphylococcus aureus) [p117-136]”, the binding is reported as “− (−: no competition up to 200 μM test peptide)”. In the case of FMVEGQRVRTISTYAINNTRCTIF [p395-418], the binding is reported as “− (−: no competition up to 200 μM test peptide)”. YKVVKGVKKYFSFSQSNGYKIG [p284-305] was tested, and the binding was “+”. In the case of KLLVLTMSTLFATQIMNSNHAKASV [p4-29], the binding is reported as “+”. For “MNYGYGPGVVTSRTISASQA (EMNYGYGPGVVTSRTISASQA; listed as Staphylococcus aureus) [p240-260]”, the binding was “+”. “VIVSTLFLISQHQAQA (VIVSTLFLITSQHQAQA; listed as Staphylococcus aureus) [p24-40]” was tested, and the binding was “− (−: no competition up to 200 μM test peptide)”. With KEFKSFYSIRKSSLGVASVAISTL [p6-30] the binding was “+ +”. In the case of “QSWWGLYALLGMLALFIPKFRKESK (listed as Staphylococcus aureus) [p871-896]”, the binding is reported as “− (−: no competition up to 200 μM test peptide)”.

What follows are molecules tested on antibodies in human patient sera (assay: Western blot reactivity of selected clones with human sera). Conditions: clone and its aa region are named in the cell; prefix A/B/C = screen the clone came from.
Format: binding
Method: For Western blot analysis approximately 10 to 20 μg of total cellular protein was separated by 10% SDS-PAGE and blotted onto HybondC membrane (Amersham Pharmacia Biotech, England). The LamB or FhuA fusion proteins were detected using human serum as the primary antibody at a dilution of 1:5000 and anti human IgG antibodies coupled to HRP at a dilution of 1:5000 as secondary antibodies. Detection was performed using the ECL detection kit (Amersham Pharmacia Biotech, England). Alternatively, rabbit anti FhuA or mouse anti LamB antibodies were used as primary antibodies in combination with the respective secondary antibodies coupled to HRP for the detection of the fusion proteins.
Subsequent sequencing of a larger number of randomly picked clones (500 to 800 per screen) led to the identification of the gene and the corresponding peptide or protein sequence that was specifically recognized by the human patient serum used for screening. The frequency with which a specific clone is selected reflects at least in part the abundance and/or affinity of the specific antibodies in the serum used for selection and recognizing the epitope presented by this clone. […] All clones that are presented in Table 2 have been verified by Western blot analysis using whole cellular extracts from single clones to show the indicated reactivity with the pool of human serum used in the screen.
10 to 30 different human patient sera were subsequently used to evaluate the presence of antibodies against the selected immunogenic peptide sequences that have been discovered in the screen according to the present invention. To eliminate possible cross-reactivity with proteins expressed by E. coli, all sera were pre-adsorbed with a total cellular lysate of E. coli DHa cells expressing FhuA protein.
This analysis is summarized in Table 2 and as an example shown in FIG. 4 and is indicative of the validity of the present screen.
In the case of B1, the “Serum reactivity with relevant region (positive/total)” value is reported as “A: SEFAH77(22-66): 6/12”.
